{"source": "patent US20120047604", "tested_on": "casein", "data": [{"substance": "GST-WKS1_Kinase fusion protein", "values": [{"measurement": "in-gel kinase activity", "value": "The WKS1 Ser/Thr kinase domain (pfam00069) was confirmed to have kinase activity (FIG. 17)"}]}]}
